Measurements published in PMC7083068 (Journal of thrombosis and haemostasis : JTH, 2019).

Target: human recombinant FVIII (Advate) (human, UniProt P00451 20-2351)
Assay: ELISA

Chain of human recombinant FVIII (Advate) (P00451 20-2351): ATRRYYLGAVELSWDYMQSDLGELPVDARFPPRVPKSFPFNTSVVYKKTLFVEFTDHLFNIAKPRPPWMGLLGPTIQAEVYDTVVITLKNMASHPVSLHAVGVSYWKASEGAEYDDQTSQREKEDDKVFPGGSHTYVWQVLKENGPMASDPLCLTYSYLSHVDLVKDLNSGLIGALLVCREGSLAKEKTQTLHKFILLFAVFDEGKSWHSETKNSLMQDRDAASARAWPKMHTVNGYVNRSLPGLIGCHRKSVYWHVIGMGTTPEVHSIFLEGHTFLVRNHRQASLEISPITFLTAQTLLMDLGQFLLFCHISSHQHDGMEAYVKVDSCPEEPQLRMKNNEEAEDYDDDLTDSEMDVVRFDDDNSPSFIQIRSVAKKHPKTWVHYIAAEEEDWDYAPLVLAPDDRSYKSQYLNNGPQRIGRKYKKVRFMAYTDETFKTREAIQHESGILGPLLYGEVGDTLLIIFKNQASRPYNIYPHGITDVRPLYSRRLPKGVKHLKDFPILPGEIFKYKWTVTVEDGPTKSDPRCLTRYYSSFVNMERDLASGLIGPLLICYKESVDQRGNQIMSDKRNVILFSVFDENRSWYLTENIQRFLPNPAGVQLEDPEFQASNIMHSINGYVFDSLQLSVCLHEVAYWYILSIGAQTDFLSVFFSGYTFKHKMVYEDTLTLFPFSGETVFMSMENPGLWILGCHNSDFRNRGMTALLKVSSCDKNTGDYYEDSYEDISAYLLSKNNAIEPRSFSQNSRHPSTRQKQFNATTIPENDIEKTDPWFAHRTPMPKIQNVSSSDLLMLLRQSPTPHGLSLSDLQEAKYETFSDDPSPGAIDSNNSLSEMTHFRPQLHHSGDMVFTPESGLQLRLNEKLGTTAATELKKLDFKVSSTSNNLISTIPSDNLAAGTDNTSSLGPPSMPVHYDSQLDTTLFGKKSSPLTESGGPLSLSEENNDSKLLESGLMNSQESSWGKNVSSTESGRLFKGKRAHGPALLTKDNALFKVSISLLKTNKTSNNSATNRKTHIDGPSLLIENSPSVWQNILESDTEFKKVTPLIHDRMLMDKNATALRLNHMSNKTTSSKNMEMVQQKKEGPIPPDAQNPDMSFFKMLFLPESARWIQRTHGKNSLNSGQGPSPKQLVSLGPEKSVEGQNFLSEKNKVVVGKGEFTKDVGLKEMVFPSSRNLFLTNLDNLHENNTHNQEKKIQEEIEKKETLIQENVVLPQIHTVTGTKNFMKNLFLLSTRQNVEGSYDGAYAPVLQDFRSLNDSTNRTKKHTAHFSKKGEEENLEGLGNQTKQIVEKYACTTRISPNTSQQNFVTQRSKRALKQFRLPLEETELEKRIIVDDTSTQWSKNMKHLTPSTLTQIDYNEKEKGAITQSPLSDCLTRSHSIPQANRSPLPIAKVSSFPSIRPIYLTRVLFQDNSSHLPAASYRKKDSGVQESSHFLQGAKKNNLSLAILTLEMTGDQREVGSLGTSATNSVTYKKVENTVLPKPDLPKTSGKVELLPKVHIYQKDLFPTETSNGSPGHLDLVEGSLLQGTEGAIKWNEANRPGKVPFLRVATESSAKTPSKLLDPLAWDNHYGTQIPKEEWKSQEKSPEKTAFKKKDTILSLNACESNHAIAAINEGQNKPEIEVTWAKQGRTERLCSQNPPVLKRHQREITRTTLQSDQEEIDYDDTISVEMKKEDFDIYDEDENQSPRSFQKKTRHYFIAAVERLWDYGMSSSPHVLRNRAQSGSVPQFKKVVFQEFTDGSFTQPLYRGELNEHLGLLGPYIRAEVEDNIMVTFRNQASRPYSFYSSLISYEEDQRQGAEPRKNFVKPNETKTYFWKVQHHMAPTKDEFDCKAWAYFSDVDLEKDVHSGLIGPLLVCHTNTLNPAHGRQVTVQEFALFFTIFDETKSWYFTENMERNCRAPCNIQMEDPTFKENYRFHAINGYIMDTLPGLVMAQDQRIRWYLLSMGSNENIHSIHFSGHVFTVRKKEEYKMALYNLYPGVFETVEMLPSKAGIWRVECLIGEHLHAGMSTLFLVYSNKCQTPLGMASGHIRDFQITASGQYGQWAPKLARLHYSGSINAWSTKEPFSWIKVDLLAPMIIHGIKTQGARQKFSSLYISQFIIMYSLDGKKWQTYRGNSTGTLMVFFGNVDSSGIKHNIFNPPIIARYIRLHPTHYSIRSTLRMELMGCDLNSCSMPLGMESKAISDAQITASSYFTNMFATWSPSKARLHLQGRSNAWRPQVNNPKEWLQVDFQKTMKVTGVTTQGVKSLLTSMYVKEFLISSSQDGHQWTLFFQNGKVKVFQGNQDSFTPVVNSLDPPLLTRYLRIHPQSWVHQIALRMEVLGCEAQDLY

Kd: < 0.1 nM
B1: recombinant CLEC4M-Fc chimera (Fc fusion, human, UniProt Q9H2X3 71-399, looked up)
chain: QVSKVPSSLSQEQSEQDAIYQNLTQLKAAVGELSEKSKLQEIYQELTQLKAAVGELPEKSKLQEIYQELTRLKAAVGELPEKSKLQEIYQELTRLKAAVGELPEKSKLQEIYQELTRLKAAVGELPEKSKLQEIYQELTELKAAVGELPEKSKLQEIYQELTQLKAAVGELPDQSKQQQIYQELTDLKTAFERLCRHCPKDWTFFQGNCYFMSNSQRNWHDSVTACQEVRAQLVVIKTAEEQNFLQLQTSRSNRFSWMGLSDLNQEGTWQWVDGSPLSPSFQRYWNSGEPNNSGNEDCAEFSGSGWNDNRCDVDNYWICKKPAACFRDE
